Laboratory results: article PMC3685215

Target: recombinant type 1 inositol 1,4,5-trisphosphate receptor, N-terminally tagged with ECFP (rat) (UniProt P29994)
Test: SEC; Calibrated Superose 6 10/300 GL gel filtration, the final purification step; 50 mM Tris/HCl, 150 mM NaCl, 1 mM EDTA, 1 mM dithiothreitol, 5% glycerol, 0.02% DDM, pH 8.3; 4 °C; oligomeric size of the purified receptor

Substance: recombinant type 1 inositol 1,4,5-trisphosphate receptor, N-terminally tagged with ECFP (from UniProt P29994 1-2750)
- stoichiometry N: 4
